Test results reported in IntAct's records for PubMed 17703188.

B1: Discoidin domain-containing receptor 2 (Homo sapiens), Q16832 (parent)
chain: MILIPRMLLVLFLLLPILSSAKAQVNPAICRYPLGMSGGQIPDEDITASSQWSESTAAKYGRLDSEEGDGAWCPEIPVEPDDLKEFLQIDLHTLHFITLVGTQGRHAGGHGIEFAPMYKINYSRDGTRWISWRNRHGKQVLDGNSNPYDIFLKDLEPPIVARFVRFIPVTDHSMNVCMRVELYGCVWLDGLVSYNAPAGQQFVLPGGSIIYLNDSVYDGAVGYSMTEGLGQLTDGVSGLDDFTQTHEYHVWPGYDYVGWRNESATNGYIEIMFEFDRIRNFTTMKVHCNNMFAKGVKIFKEVQCYFRSEASEWEPNAISFPLVLDDVNPSARFVTVPLHHRMASAIKCQYHFADTWMMFSEITFQSDAAMYNNSEALPTSPMAPTTYDPMLKVDDSNTRILIGCLVAIIFILLAIIVIILWRQFWQKMLEKASRRMLDDEMTVSLSLPSDSSMFNNNRSSSPSEQGSNSTYDRIFPLRPDYQEPSRLIRKLPEFAPGEEESGCSGVVKPVQPSGPEGVPHYAEADIVNLQGVTGGNTYSVPAVTMDLLSGKDVAVEEFPRKLLTFKEKLGEGQFGEVHLCEVEGMEKFKDKDFALDVSANQPVLVAVKMLRADANKNARNDFLKEIKIMSRLKDPNIIHLLAVCITDDPLCMITEYMENGDLNQFLSRHEPPNSSSSDVRTVSYTNLKFMATQIASGMKYLSSLNFVHRDLATRNCLVGKNYTIKIADFGMSRNLYSGDYYRIQGRAVLPIRWMSWESILLGKFTTASDVWAFGVTLWETFTFCQEQPYSQLSDEQVIENTGEFFRDQGRQTYLPQPAICPDSVYKLMLSCWRRDTKNRPSFQEIHLLLLQQGDE

Variants of: B1
Details: with coba2_human COL11A2, P13942
coba2_human COL11A2, P13942, sequence (P13942 whole entry): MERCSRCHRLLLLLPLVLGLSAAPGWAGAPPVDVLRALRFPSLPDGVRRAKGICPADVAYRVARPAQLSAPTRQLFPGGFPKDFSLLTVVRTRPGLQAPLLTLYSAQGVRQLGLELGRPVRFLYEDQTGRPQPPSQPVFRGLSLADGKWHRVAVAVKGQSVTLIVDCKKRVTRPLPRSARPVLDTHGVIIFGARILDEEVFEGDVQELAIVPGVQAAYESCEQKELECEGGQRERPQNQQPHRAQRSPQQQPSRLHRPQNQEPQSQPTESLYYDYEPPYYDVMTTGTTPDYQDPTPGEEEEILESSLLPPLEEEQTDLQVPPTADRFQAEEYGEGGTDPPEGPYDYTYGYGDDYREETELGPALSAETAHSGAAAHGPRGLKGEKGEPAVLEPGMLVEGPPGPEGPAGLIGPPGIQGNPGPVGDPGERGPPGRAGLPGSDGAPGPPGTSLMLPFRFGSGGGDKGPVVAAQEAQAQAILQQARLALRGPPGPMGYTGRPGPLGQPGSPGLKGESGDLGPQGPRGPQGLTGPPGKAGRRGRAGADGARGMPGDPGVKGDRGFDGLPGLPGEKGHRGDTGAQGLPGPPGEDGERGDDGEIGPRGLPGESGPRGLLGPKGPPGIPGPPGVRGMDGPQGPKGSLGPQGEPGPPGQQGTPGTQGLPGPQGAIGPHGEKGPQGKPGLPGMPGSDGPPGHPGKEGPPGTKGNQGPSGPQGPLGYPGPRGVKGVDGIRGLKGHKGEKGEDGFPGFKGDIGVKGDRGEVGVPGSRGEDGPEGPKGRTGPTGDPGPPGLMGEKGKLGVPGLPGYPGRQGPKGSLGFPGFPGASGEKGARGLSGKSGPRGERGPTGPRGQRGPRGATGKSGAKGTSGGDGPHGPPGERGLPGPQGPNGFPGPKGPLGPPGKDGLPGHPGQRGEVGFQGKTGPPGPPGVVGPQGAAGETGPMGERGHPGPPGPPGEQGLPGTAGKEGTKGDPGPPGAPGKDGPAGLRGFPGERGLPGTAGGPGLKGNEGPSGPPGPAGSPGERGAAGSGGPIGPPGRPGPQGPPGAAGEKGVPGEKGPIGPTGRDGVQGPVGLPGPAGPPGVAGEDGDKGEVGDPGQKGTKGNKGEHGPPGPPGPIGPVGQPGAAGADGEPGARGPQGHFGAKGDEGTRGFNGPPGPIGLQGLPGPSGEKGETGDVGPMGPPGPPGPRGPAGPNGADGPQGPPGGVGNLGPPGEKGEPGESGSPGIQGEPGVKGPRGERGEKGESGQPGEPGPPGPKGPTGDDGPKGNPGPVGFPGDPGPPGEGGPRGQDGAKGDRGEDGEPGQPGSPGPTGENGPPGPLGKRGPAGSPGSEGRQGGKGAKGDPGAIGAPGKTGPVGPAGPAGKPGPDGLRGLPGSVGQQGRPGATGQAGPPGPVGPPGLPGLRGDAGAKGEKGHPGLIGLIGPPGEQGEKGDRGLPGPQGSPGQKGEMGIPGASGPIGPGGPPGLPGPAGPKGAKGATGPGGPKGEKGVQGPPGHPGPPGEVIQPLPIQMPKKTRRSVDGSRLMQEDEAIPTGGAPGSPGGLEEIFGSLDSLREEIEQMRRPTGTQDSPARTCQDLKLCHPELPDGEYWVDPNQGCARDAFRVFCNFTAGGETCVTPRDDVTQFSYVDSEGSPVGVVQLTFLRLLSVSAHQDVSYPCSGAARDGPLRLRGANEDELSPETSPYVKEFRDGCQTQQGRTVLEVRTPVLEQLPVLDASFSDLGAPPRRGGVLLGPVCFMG

Effect of a mutation on the interaction, disrupting interaction:
E113A
R105A
W52A
